Measurements from publication PMC6041257.

Biological target: SUFU (UniProt Q9UMX1)
Experiment: co-immunoprecipitation (assumed)
Settings: reference: GLI1-WT; sites S201,S204,S243

GLI1 (from UniProt P08151) GLI1-S201/204/243A
binding against the reference: weaker
